Source: patent US8173397B2, “Folded recombinant catalytic fragments of multidomain serine proteases, preparation and uses thereof” (TargetEx Kft., priority 2002, dated 2012)

T1: C2 (Homo sapiens, UniProt P06681)
T1 construct: from tissue
T1 sequence (P06681 21-752): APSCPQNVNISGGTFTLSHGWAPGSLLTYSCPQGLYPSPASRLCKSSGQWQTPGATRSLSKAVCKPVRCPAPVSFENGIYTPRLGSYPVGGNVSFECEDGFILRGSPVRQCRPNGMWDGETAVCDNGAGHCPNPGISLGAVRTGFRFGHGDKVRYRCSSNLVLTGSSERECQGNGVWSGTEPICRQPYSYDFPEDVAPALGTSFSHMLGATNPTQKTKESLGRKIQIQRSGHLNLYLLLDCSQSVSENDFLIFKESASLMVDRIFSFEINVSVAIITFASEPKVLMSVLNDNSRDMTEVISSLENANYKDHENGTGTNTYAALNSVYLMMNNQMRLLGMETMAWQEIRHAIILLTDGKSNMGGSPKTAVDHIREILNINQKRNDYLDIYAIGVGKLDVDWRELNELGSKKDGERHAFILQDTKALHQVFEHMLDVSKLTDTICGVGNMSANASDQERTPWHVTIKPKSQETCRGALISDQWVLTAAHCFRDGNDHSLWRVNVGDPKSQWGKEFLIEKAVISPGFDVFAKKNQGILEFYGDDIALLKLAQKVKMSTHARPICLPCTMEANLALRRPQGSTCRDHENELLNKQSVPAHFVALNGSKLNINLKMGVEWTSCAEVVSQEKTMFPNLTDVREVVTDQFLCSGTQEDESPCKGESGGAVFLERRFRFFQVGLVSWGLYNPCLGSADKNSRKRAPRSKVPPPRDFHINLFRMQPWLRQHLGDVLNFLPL


Assays:
live C3 = target: T2, live C3 (Homo sapiens, UniProt P01024); experiment: Cleavage of live C3 by MASP fragments, SDS-PAGE densitometry; assay type: biochemical; settings: control experiment
T2 construct: was isolated from fresh human serum; from tissue; host or cells: fresh human serum
Experimental: C2, C3, C3(NH3), C4 cleavage—Serial dilutions of MASP-1 and MASP-2 fragments ranging between concentrations of 1 μM and 10 pM were incubated at 37° C. in 20 mM HEPES, 140 mM NaCl, pH 7.4 with C2, C3, C3(NH3) or C4 at typical concentrations of 0.5-1 μM. The cleavage was followed by SDS-PAGE under reducing conditions. Desirable concentrations of the MASP fragments for further detailed kinetic analysis were chosen to be where half of the protein substrates were hydrolyzed during the first 20 minutes of incubation. The protein substrates C2, C3, C3(NH3) or C4 were then incubated with the selected concentrations of the MASP fragments at 37° C. in 20 mM HEPES, 140 mM NaCl, pH 7.4. Typically 11-13 samples were taken at varying time periods but always within 50 minutes from the beginning of the reaction. Cleavages rates were quantified by measuring the diminution of the cleaved chain visualized by Coomassie stained SDS-PAGs using a GEL DOC 1000 instrument and Molecular Analyst Software for densitometric calculations (Bio-Rad, Hercules, Calif., USA). The reactions were assumed to be of the Michaelis-Menten type. In the case of C3 and C3(NH3) cleavage a further reasonable assumption of KM>>[substrate] was made. […]

C3(NH3) = target: T3, C3(NH3) (Homo sapiens, UniProt P01024); experiment: Cleavage of dead C3, C3(NH3), by MASP fragments, SDS-PAGE densitometry; assay type: biochemical; settings: control experiment
T3 construct: was isolated from fresh human serum; from tissue; host or cells: fresh human serum, then amidolysis with ammonium hydrogen carbonate
Experimental: Amidolysis of C3 The intact thiol ester bond in ‘live’ C3 was cleaved using ammonium salt as the nucleophile to obtain ‘dead’ C3(NH3), according to Soames and Sim (1997) with modifications. C3 was incubated with a final concentration of 0.2 M ammonium hydrogen carbonate for 90 min at 37° C., making sure that the final pH of the reaction was above 8.0. At the end of the incubation, the reaction was collected with a brief centrifugation (5 min, 8000 g, RT) and dialyzed against 20 mM HEPES, 140 mM NaCl, pH 7.4.
C2, C3, C3(NH3), C4 cleavage—Serial dilutions of MASP-1 and MASP-2 fragments ranging between concentrations of 1 μM and 10 pM were incubated at 37° C. in 20 mM HEPES, 140 mM NaCl, pH 7.4 with C2, C3, C3(NH3) or C4 at typical concentrations of 0.5-1 μM. The cleavage was followed by SDS-PAGE under reducing conditions. Desirable concentrations of the MASP fragments for further detailed kinetic analysis were chosen to be where half of the protein substrates were hydrolyzed during the first 20 minutes of incubation. […] Cleavages rates were quantified by measuring the diminution of the cleaved chain visualized by Coomassie stained SDS-PAGs using a GEL DOC 1000 instrument and Molecular Analyst Software for densitometric calculations (Bio-Rad, Hercules, Calif., USA). […]

[1] = Differential scanning calorimetry of C1r fragments; assay type: physicochemical; settings: 20 mM Tris pH 8.3, 145 mM NaCl, 0.1 mg/ml, 1° C./min
Experimental: Calorimetric measurements were performed on a VP-DSC (Microcal Inc, Northampton, Mass.) differential scanning calorimeter. Denaturation curves were recorded between 10 and 80° C. at a pressure of 2.5 atm, using a scanning rate of 1° C./min. The protein concentration was set to 0.1 mg/ml. Samples were dialyzed against 20 mM Tris pH 8.3 145 mM NaCl, and the dialysis buffer was used as a reference. Heat capacities were calculated as outlined by Privalov (16).

C2 = target: T1, C2; experiment: C2 cleavage by MASP fragments; assay type: biochemical; settings: 37° C., pH 7.4; averages of 2 to 4 experiments, standard errors
Experimental: (§1) C2, C3, C3(NH3), C4 cleavage—Serial dilutions of MASP-1 and MASP-2 fragments ranging between concentrations of 1 μM and 10 pM were incubated at 37° C. in 20 mM HEPES, 140 mM NaCl, pH 7.4 with C2, C3, C3(NH3) or C4 at typical concentrations of 0.5-1 μM. The cleavage was followed by SDS-PAGE under reducing conditions. Desirable concentrations of the MASP fragments for further detailed kinetic analysis were chosen to be where half of the protein substrates were hydrolyzed during the first 20 minutes of incubation. The protein substrates C2, C3, C3(NH3) or C4 were then incubated with the selected concentrations of the MASP fragments at 37° C. in 20 mM HEPES, 140 mM NaCl, pH 7.4. Typically 11-13 samples were taken at varying time periods but always within 50 minutes from the beginning of the reaction. Cleavages rates were quantified by measuring the diminution of the cleaved chain visualized by Coomassie stained SDS-PAGs using a GEL DOC 1000 instrument and Molecular Analyst Software for densitometric calculations (Bio-Rad, Hercules, Calif., USA). The reactions were assumed to be of the Michaelis-Menten type. In the case of C3 and C3(NH3) cleavage a further reasonable assumption of KM>>[substrate] was made. The constants KM, kcat and […] were estimated by unbiased non-linear regression methods regressing the data on the following equations: t=([S0]−[S]+KMln([S0]/[S]))/(kcat[E0]) or in the case of C3 and C3(NH3) cleavage on [S]=[S0]exp(−t[E0]kcat/KM).

C4 = C4 cleavage by MASP fragments; assay type: biochemical, human
Experimental: as §1

T2 sequence (P01024 672-1663 limits assumed): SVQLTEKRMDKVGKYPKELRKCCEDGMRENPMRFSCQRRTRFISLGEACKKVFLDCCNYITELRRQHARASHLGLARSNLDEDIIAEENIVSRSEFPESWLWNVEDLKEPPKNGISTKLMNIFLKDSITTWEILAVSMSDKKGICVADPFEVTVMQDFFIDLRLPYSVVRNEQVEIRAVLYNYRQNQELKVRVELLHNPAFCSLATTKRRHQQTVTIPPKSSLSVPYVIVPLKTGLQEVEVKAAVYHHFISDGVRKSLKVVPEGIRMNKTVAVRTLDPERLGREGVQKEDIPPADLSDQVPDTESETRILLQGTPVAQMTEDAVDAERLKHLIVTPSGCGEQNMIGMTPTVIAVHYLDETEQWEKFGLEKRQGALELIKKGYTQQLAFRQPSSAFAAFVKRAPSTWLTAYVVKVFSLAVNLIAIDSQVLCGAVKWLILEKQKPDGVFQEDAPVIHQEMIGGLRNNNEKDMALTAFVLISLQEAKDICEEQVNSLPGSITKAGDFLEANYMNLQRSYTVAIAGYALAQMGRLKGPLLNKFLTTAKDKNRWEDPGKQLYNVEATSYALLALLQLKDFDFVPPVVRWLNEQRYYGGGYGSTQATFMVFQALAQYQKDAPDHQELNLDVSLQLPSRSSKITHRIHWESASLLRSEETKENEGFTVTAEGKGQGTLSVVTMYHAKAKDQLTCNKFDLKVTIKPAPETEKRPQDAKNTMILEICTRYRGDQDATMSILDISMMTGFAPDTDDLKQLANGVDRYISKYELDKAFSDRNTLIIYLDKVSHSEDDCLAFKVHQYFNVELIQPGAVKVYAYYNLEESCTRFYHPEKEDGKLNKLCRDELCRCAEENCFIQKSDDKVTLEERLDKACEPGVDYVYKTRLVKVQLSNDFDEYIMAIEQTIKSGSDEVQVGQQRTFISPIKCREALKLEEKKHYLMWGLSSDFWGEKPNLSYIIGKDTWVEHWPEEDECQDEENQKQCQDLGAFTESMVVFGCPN
T2 sequence (P01024 23-667 partner limits assumed): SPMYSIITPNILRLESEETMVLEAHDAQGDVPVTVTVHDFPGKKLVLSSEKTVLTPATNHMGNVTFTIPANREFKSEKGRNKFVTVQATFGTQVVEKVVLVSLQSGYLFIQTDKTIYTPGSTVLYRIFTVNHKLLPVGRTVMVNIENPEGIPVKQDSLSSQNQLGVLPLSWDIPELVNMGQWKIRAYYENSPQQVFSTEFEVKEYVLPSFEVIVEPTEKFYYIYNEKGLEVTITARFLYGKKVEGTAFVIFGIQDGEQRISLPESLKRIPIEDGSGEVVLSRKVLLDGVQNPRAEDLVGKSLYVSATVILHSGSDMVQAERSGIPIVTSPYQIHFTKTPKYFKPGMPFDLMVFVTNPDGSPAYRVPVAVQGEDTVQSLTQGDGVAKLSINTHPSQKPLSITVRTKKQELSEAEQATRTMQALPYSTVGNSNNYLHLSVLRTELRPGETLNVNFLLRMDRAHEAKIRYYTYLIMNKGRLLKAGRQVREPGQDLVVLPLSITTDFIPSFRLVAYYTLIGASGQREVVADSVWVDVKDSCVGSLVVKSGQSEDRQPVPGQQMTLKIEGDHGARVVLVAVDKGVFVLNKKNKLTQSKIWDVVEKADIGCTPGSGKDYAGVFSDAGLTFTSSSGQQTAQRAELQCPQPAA
T3 sequence (P01024 672-1663 limits assumed): as the sequence (P01024 672-1663 limits assumed) above
T3 sequence (P01024 23-667 partner limits assumed): as the sequence (P01024 23-667 partner limits assumed) above

Row | Molecule | cleavage of 'live' C3, in words (live C3) | cleavage of 'dead' C3, in words (C3(NH3)) | DSC melting / unfolding transition temperature [1] [°C] | C2 kcat (C2) [s⁻¹] | C4 kcat (C4; 37° C., pH 7.4, averages of 2 to 4 experiments, standard errors) [s⁻¹] | increase in the kcat/KM value of C4 cleavage by presence of the CCP2 domain (C4; relative to MASP-2 SP domain alone) [fold]
1 | CCP1-CCP2-SP: E. coli-expressed, refolded human C1r CCP1-CCP2-SP fragment, amino acids 309-705, N-terminal Ser-Thr-Gln-Ala (protein) chain 1: STQACPQPKTLDEFTIIQNLQPQYQFRDYFIATCKQGYQLIEGNQVLHSFTAVCQDDGTWHRAMPRCKIKDCGQPRNLPNGDFRYTTTMGVNTYKARIQYYCHEPYYKMQTRAGSRESEQGVYTCTAQGIWKNEQKGEKIPRCLPVCGKPVNPVEQRQR chain 2: IIGGQKAKMGNFPWQVFTNIHGRGGGALLGDRWILTAAHTLYPKEHEAQSNASLDVFLGHTNVEELMKLGNHPIRRVSVHPDYRQDESYNFEGDIALLELENSVTLGPNLLPICLPDNDTFYDLGLMGYVSGFGVMEEKIAHDLRFVRLPVANPQACENWLRGKNRMDVFSQNMFCAGHPSLKQDACQGDSGGVFAVRDPNTDRWVATGIVSWGIGCSRGYGFYTKVLNYVDWIKKEMEEED | no cleavages | no cleavages | 57.5 |  |  | 
2 | MASP-2 CCP-SP: E. coli-expressed, refolded human MASP-2 CCP2-SP fragment, Ala-Ser-Met-Thr tag followed by Ile363, ending Phe686 (protein) chain 1: ASMTIVDCGPPDDLPSGRVEYITGPGVTTYKAVIQYSCEETFYTMKVNDGKYVCEADGFWTSSKGEKSLPVCEPVCGLSARTTGGR chain 2: IYGGQKAKPGDFPWQVLILGGTTAAGALLYDNWVLTAAHAVYEQKHDASALDIRMGTLKRLSPHYTQAWSEAVFIHEGYTHDAGFDNDIALIKLNNKVVINSNITPICLPRKEAESFMRTDDIGTASGWGLTQRGFLARNLMYVDIPIVDHQKCTAAYEKPPYPRGSVTANMLCAGLESGGKDSCRGDSGGALVFLDSETERWFVGGIVSWGSMNCGEAGQYGVYTKVINYIPWIENIISDF |  |  |  | 3.0 ± 2.2 | 2.0 ± 1.0 | 44
